CN105646705A

Molecular target: 原核表达的重组人GFAP蛋白 (PET28a-GFAP, 大肠杆菌BL21表达, Ni-NTA纯化) (human) (UniProt P14136)
Test: direct ELISA, purified GFAP coated at 10 μg/ml, purified antibody diluted 1:200 to 1:12800, goat anti-mouse IgG-HRP, OD450

Sequence of UniProt P14136 (P14136 other isoform, or with tags, fused parts or gaps): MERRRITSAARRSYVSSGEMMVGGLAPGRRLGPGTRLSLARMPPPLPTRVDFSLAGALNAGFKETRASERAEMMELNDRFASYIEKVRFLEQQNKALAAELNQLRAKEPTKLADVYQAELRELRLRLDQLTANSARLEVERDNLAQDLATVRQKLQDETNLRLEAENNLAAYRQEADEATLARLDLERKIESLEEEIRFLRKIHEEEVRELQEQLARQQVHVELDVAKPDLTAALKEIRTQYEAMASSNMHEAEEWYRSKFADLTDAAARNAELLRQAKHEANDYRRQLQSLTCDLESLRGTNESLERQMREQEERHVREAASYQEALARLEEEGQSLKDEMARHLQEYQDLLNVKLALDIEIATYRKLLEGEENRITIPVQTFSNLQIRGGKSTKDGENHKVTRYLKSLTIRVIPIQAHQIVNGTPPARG

ELISA滴度 (dilution factor (1:x)): > 10000
B1: 小鼠抗人GFAP单克隆抗体 5C8 (杂交瘤细胞株5C8, CGMCC No.6915) (antibody, part only; not given: light chain variable region, V domains shown, part only)
VH: LASTATGVHSQVQLQQPGAELVRPGASVKLSCKASGYTFTSYWMNWVKQRPGQGLEWIGMINPSDSEIQYNQMFKDKATLTVDKSSSTAYIHLTSLTSEDSAVYYCARGLGRYWGQGTTLTVSPASTTPPSV
